In publication PMC5430821 one finds Kd, koff and kon data, which are given here for two substances.

The test concerns the target rat synaptotagmin 2 fused to the DCTM exosome-sorting peptide, displayed on exosomes (rat) (UniProt P29101). Briefly: SPR; […] (1 µM); […], single-cycle kinetics, 1:1 model, […]; 25 °C, HBS pH 7.4, 150 mM NaCl.
Chain of UniProt P29101 (P29101 whole entry, the tested form may be a part): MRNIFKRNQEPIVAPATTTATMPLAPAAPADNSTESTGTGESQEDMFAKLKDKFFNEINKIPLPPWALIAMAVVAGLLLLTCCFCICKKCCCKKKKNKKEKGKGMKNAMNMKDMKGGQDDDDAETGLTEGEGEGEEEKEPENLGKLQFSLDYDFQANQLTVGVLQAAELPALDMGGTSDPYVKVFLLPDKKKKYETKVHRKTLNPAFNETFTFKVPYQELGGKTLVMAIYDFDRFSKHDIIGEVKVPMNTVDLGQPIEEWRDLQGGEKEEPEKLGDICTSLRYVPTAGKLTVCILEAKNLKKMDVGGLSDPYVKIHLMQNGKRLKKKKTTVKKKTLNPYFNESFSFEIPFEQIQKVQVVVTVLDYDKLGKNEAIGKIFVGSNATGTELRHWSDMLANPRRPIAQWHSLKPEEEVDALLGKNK

“BoNT/B (B1 Okra strain) neurotoxin with non-toxic accessory proteins (complex)” yielded a Kd of 1.4 nM, a koff of 0.00041 s⁻¹ and a kon of 310000 M⁻¹ s⁻¹.

Regarding “BoNT/B holotoxin (B1), pure botulinum neurotoxin type B (natural protein)”, the equilibrium dissociation constant (Kd) turned out to be 0.6 nM, the dissociation rate constant (koff) stood at 0.00013 s⁻¹ and the on-rate (kon) was found to be 230000 M⁻¹ s⁻¹.

A word on the Kd: it is the constant that tells how readily two partners part at equilibrium. Low values mean higher affinity, high ones lower affinity. A word on the koff: it is the first-order rate constant of dissociation. Higher therefore signals a short-lived complex. In general, kon refers to a measure of how fast the partners come together. A low value points to slower complex formation.
